According to the supplement of paper PMC5998384:

Legend:
HeLa Kyoto [1] = experiment: solubility change mitosis vs G1/S (difference of NP-40 vs SDS log2 ratios) (log2 ratio difference); higher = more soluble in mitosis
HeLa Kyoto [2] = experiment: melting temperature (median over replicates), in situ; higher = more thermally stable
HeLa Kyoto [3] = experiment: solubility in G1/S (NP-40 vs SDS abundance) (log2 ratio); higher = more soluble; conditions: cell cycle stage: G1/S
HeLa Kyoto [4] = experiment: thermal stability score vs G1/S (z-score of summed log2 fold changes over temperatures); higher = more thermally stable than in G1/S
[5] = cell cycle stage: early G1 (4.5 h after nocodazole release)
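Wherever melting temperature (median over replicates), in situ is given: HeLa Kyoto cells synchronized by double thymidine or nocodazole block, proteins quantified by TMT10plex mass spectrometry, three independent biological replicates.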
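Wherever solubility change mitosis vs G1/S (difference of NP-40 vs SDS log2 ratios) is given: synchronized HeLa Kyoto cells (double thymidine block for G1/S, nocodazole release for mitosis), protein amounts in NP-40 versus SDS lysates quantified by mass spectrometry, three biological replicates.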
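Wherever solubility in G1/S (NP-40 vs SDS abundance) is given: HeLa Kyoto cells arrested at G1/S by double thymidine block, proteins quantified by TMT10plex mass spectrometry in mild NP-40 versus SDS extracts, three biological replicates.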
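Wherever thermal stability score vs G1/S (z-score of summed log2 fold changes over temperatures) is given: synchronized HeLa Kyoto cells, proteins quantified by TMT10plex mass spectrometry, three biological replicates, mitosis taken 0.5 h after nocodazole release, G1/S directly after double thymidine block.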

**Q.** How did the “solubility change mitosis (log2)” value (HeLa Kyoto [1]) turn out when “MSFIDPYQHIIVEHQYSHKFTVVVLRATKVTKGAFGDMLDTPDPYVELFISTTPDSRKRTRHFNNDINPVWNETFEFILDPNQENVLEITLMDANYVMDETLGTATFTVSSMKVGEKKEVPFIFNQVTEMVLEMSLEVCSCPDLRFSMALCDQEKTFRQQRKEHIRESMKKLLGPKNSEGLHSARDVPVVAILGSGGGFRAMVGFSGVMKALYESGILDCATYVAGLSGSTWYMSTLYSHPDFPEKGPEEINEELMKNVSHNPLLLLTPQKVKRYVESLWKKKSSGQPVTFTDIFGMLIGETLIHNRMNTTLSSLKEKVNTAQCPLPLFTCLHVKPDVSELMFADWVEFSPYEIGMAKYGTFMAPDLFGSKFFMGTVVKKYEENPLHFLMGVWGSAFSILFNRVLGVSGSQSRGSTMEEELENITTKHIVSNDSSDSDDESHEPKGTENEDAGSDYQSDNQASWIHRMIMALVSDSALFNTREGRAGKVHNFMLGLNLNTSYPLSPLSDFATQDSFDDDELDAAVADPDEFERIYEPLDVKSKKIHVVDSGLTFNLPYPLILRPQRGVDLIISFDFSARPSDSSPPFKELLLAEKWAKMNKLPFPKIDPYVFDREGLKECYVFKPKNPDMEKDCPTIIHFVLANINFRKYRAPGVPRETEEEKEIADFDIFDDPESPFSTFNFQYPNQAFKRLHDLMHFNTLNNIDVIKEAMVESIEYRRQNPSRCSVSLSNVEARRFFNKEFLSKPKA [PLA2G4A]” was run?
**A.** -0.0979

**Q.** And the melting temperature (HeLa Kyoto [2]; cell cycle stage: G1/S)?
**A.** 50.3 °C

**Q.** And the melting temperature (HeLa Kyoto [2]; cell cycle stage: mitosis)?
**A.** 50.1 °C

**Q.** What about the “solubility in G1/S (log2)” value (HeLa Kyoto [3]) of the same sequence?
**A.** -0.0367

**Q.** What about the thermal stability score (HeLa Kyoto [4]; [5]) of the same sequence?
**A.** 1.55

**Q.** What about the thermal stability score (HeLa Kyoto [4]; cell cycle stage: mitosis) of the same sequence?
**A.** 0.83

**Q.** Which “solubility change mitosis (log2)” value (HeLa Kyoto [1]) does the source give for “MSFPKAPLKRFNDPSGCAPSPGAYDVKTLEVLKGPVSFQKSQRFKQQKESKQNLNVDKDTTLPASARKVKSSESKESQKNDKDLKILEKEIRVLLQERGAQDRRIQDLETELEKMEARLNAALREKTSLSANNATLEKQLIELTRTNELLKSKFSENGNQKNLRILSLELMKLRNKRETKMRGMMAKQEGMEMKLQVTQRSLEESQGKIAQLEGKLVSIEKEKIDEKSETEKLLEYIEEISCASDQVEKYKLDIAQLEENLKEKNDEILSLKQSLEENIVILSKQVEDLNVKCQLLEKEKEDHVNRNREHNENLNAEMQNLKQKFILEQQEREKLQQKELQIDSLLQQEKELSSSLHQKLCSFQEEMVKEKNLFEEELKQTLDELDKLQQKEEQAERLVKQLEEEAKSRAEELKLLEEKLKGKEAELEKSSAAHTQATLLLQEKYDSMVQSLEDVTAQFESYKALTASEIEDLKLENSSLQEKAAKAGKNAEDVQHQILATESSNQEYVRMLLDLQTKSALKETEIKEITVSFLQKITDLQNQLKQQEEDFRKQLEDEEGRKAEKENTTAELTEEINKWRLLYEELYNKTKPFQLQLDAFEVEKQALLNEHGAAQEQLNKIRDSYAKLLGHQNLKQKIKHVVKLKDENSQLKSEVSKLRCQLAKKKQSETKLQEELNKVLGIKHFDPSKAFHHESKENFALKTPLKEGNTNCYRAPMECQESWK [HMMR]” here?
**A.** 0.189

**Q.** What about the melting temperature (HeLa Kyoto [2]; cell cycle stage: G1/S) of the same sequence?
**A.** 49.2 °C

**Q.** What about the melting temperature (HeLa Kyoto [2]; cell cycle stage: mitosis) of the same sequence?
**A.** 50.1 °C

**Q.** And the “solubility in G1/S (log2)” value (HeLa Kyoto [3])?
**A.** 0.497

**Q.** What about the thermal stability score (HeLa Kyoto [4]; [5]) of the same sequence?
**A.** -0.359

**Q.** What about the thermal stability score (HeLa Kyoto [4]; cell cycle stage: mitosis) of the same sequence?
**A.** -1.33

**Q.** With “MSFSEMNRRTLAFRGGGLVTASGGGSTNNNAGGEASAWPPQPQPRQPPPPAPPALQPPNGRGADEEVELEGLEPQDLEASAGPAAGAAEEAKELLLPQDAGGPTSLGGGAGGPLLAERNRRTLAFRGGGGGGLGNNGSSRGRPETSVWPLRHFNGRGPATVDLELDALEGKELMQDGASLSDSTEDEEEGASLGDGSGAEGGSCSSSRRSGGDGGDEVEGSGVGAGEGETVQHFPLARPKSLMQKLQCSFQTSWLKDFPWLRYSKDTGLMSCGWCQKTPADGGSVDLPPVGHDELSRGTRNYKKTLLLRHHVSTEHKLHEANAQESEIPSEEGYCDFNSRPNENSYCYQLLRQLNEQRKKGILCDVSIVVSGKIFKAHKNILVAGSRFFKTLYCFSNKESPNQNNTTHLDIAAVQGFSVILDFLYSGNLVLTSQNAIEVMTVASYLQMSEVVQTCRNFIKDALNISIKSEAPESVVVDYNNRKPVNRDGLSSSRDQKIASFWATRNLTNLASNVKIENDGCNVDEGQIENYQMNDSSWVQDGSPEMAENESEGQTKVFIWNNMGSQGIQETGKTRRKNQTTKRFIYNIPPNNETNLEDCSVMQPPVAYPEENTLLIKEEPDLDGALLSGPDGDRNVNANLLAEAGTSQDGGDAGTSHDFKYGLMPGPSNDFKYGLIPGTSNDFKYGLIPGASNDFKYGLLPESWPKQETWENGESSLIMNKLKCPHCSYVAKYRRTLKRHLLIHTGVRSFSCDICGKLFTRREHVKRHSLVHKKDKKYKCMVCKKIFMLAASVGIRHGSRRYGVCVDCADKSQPGGQEGVDQGQDTEFPRDEEYEENEVGEADEELVDDGEDQNDPSRWDESGEVCMSLDD [ZBTB10]” as the sequence, how does the “solubility change mitosis (log2)” value (HeLa Kyoto [1]) read?
**A.** -0.0451

**Q.** And the melting temperature (HeLa Kyoto [2]; cell cycle stage: mitosis)?
**A.** 53.4 °C

**Q.** What about the “solubility in G1/S (log2)” value (HeLa Kyoto [3]) of the same sequence?
**A.** -0.114

**Q.** And the thermal stability score (HeLa Kyoto [4]; [5])?
**A.** -0.229

**Q.** And the thermal stability score (HeLa Kyoto [4]; cell cycle stage: mitosis)?
**A.** -0.231
